Reference: patent US20200108156

Columns and labels:
[1] = test system: DM1-MCC-NFP2 (DM1-loaded NFP2 nanofiber)
[2] = test system: FITC-NFP2 nanofiber peptide construct, mPEG2000-KLDLKLDLKLDLK(FITC)
[3] = test system: DM1-MCC-NFP1 (DM1-loaded NFP1 nanofiber)
[4] = test system: FITC-NFP1 nanofiber peptide construct, mPEG2000-KKKKKKKLDLKLDLKLDLK(FITC)
[5] = test system: Cy5.5-NFP1 nanofiber peptide construct, mPEG2000-KKKKKKKLDLKLDLKLDLK-Cy5.5
[6] = test system: Cy5.5-NFP2 nanofiber peptide construct, mPEG2000 KLDLKLDLKLDLK-Cy5.5

## Cathepsin B (CathB), purified from bovine spleen (EMD Millipore)
[1]
  drug metabolites after CathB digestion (HPLC, MALDI-TOF): For DM1-MCC-NFP2, no drug metabolite was identified during CathB digestion due to its slow release property
[2]
  HPLC of nanofibers after 24 h CathB digestion (enzyme cleavage): only one fragment was identified when FITC-NFP2 was subjected to CathB digestion
[3]
  drug metabolites after CathB digestion (HPLC, MALDI-TOF): After CathB digestion, Lys-MCC-DM1 ... was identified in DM1-MCC-NFP1
[4]
  HPLC of nanofibers after 24 h CathB digestion (enzyme cleavage): CathB digested FITC-NFP1 into multiple peptide fragments after 24 hours
[5]
  fluorescence recovery after CathB activation: CathB digestion of Cy5.5-NFP1 led to the release of Cy5.5-peptide fragments, thus resulting in the recovery of the fluorescence signal
[6]
  fluorescence recovery after CathB activation: the fluorescence of Cy5.5-NFP2 was only slightly increased after exposure to CathB
